From paper PMC11529722 (Science Advances, 2024)

Target: valosin-containing protein (VCP), histidine-tagged (UniProt P55072 1-806)
Assay: BLI

valosin-containing protein (VCP), histidine-tagged, sequence (P55072 whole entry): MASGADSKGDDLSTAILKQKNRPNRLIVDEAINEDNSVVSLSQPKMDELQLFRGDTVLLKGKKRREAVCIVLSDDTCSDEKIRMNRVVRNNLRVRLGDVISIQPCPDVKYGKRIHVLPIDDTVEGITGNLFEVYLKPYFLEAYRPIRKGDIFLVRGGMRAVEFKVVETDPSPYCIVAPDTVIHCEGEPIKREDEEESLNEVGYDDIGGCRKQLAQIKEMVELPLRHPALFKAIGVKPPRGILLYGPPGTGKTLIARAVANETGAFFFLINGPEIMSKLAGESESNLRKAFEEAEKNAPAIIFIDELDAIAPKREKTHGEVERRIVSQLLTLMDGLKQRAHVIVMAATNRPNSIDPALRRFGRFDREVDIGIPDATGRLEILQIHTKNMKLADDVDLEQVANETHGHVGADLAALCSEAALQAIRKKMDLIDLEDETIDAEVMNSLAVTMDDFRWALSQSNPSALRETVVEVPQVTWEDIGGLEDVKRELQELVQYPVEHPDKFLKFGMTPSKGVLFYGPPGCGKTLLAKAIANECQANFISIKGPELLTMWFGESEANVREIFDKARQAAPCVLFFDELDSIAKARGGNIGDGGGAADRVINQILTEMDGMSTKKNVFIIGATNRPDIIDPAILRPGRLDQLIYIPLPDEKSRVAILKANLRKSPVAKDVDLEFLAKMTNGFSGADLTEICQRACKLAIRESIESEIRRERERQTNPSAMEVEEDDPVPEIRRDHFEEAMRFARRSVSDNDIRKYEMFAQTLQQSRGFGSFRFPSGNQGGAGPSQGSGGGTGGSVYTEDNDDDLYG

B1: P1, protein-like polymer (PLP) with HVLVMSATRR peptide side chains (other)
peptide: HVLVMSATRR
modifications: N terminus conjugated to N-(hexanoic acid)-exo-5-norbornene-2,3-dicarboximide, polymerised through the norbornene (ROMP) into the polymer backbone
  Kd: 92 nM
  koff: 2.5e-05 s⁻¹
